B1: ADD1 (parent)
chain: GEGTGSPPKWQIGEQEFEALMRML

Variants of: B1
Experiment: protein stability index of a GFP-peptide fusion (GPS, HEK-293T) (PSI 1-6); higher = more stable
Details: c terminus: a fixed tail appended
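Also: lentivirally expressed fusions sorted by FACS into six bins by GFP to DsRed ratio, PSI derived from sequencing read proportions per bin multiplied by bin number.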

Variant	protein stability index
GEGTGSPPKWIIGEQEFEALMRML [Q11I]	2.97
GEGTGSPPKWAIGEQEFEALMRML [Q11A]	2.86
GEGTGSPPKWRIGEQEFEALMRML [Q11R]	3.46
GEGTGSPPKWFIGEQEFEALMRML [Q11F]	3.22
GEGTGSPPKWVIGEQEFEALMRML [Q11V]	2.86
GEGTGSPPKWEIGEQEFEALMRML [Q11E]	3.24
GEGTGSPPKWSIGEQEFEALMRML [Q11S]	3.42
GEGTGSPPKWWIGEQEFEALMRML [Q11W]	3.04
GEGTGSPPKWMIGEQEFEALMRML [Q11M]	3.54
GEGTGSPPKWPIGEQEFEALMRML [Q11P]	3.33
GEGTGSPPKWKIGEQEFEALMRML [Q11K]	4.08
GEGTGSPPKWLIGEQEFEALMRML [Q11L]	2.98
GEGEGSPPKWQIGEQEFEALMRML [T4E]	3.51
GEGVGSPPKWQIGEQEFEALMRML [T4V]	2.98
GEGYGSPPKWQIGEQEFEALMRML [T4Y]	3.26
GEGWGSPPKWQIGEQEFEALMRML [T4W]	2.36
GEGLGSPPKWQIGEQEFEALMRML [T4L]	3.38
GEGFGSPPKWQIGEQEFEALMRML [T4F]	2.35
GEGHGSPPKWQIGEQEFEALMRML [T4H]	3.19
GEGAGSPPKWQIGEQEFEALMRML [T4A]	3.63
GEGSGSPPKWQIGEQEFEALMRML [T4S]	3.08
GEGDGSPPKWQIGEQEFEALMRML [T4D]	2.96
GEGGGSPPKWQIGEQEFEALMRML [T4G]	3.14
GEGTGSPPKWQIGEQEFEALKRML [M21K]	3.49

Variant	protein stability index
GEGTGSPPKWQIGEQEFEALSRML [M21S]	3.66
GEGTGSPPKWQIGEQEFEALHRML [M21H]	4.16
GEGTGSPPKWQIGEQEFEALTRML [M21T]	3.13
GEGTGSPPKWQIGEQEFEALQRML [M21Q]	3.83
GEGTGSPPKWQIGEQEFEALERML [M21E]	4.16
GEGTGSPPKWQIGEQEFEALNRML [M21N]	3.71
GEGTGSPPKWQIGEQEFEAAMRML [L20A]	4.61
GEGTGSPPKWQIGEQEFEAQMRML [L20Q]	5.25
GEGTGSPPKWQIGEQEFEAHMRML [L20H]	4.97
GEGTGSPPKWQIGEQEFEACMRML [L20C]	4.05
GEGTGSPPKWQIGEQEFEAIMRML [L20I]	2.46
GERTGSPPKWQIGEQEFEALMRML [G3R]	3.14
GEETGSPPKWQIGEQEFEALMRML [G3E]	3.07
GEQTGSPPKWQIGEQEFEALMRML [G3Q]	3.8
GETTGSPPKWQIGEQEFEALMRML [G3T]	3.54
GEITGSPPKWQIGEQEFEALMRML [G3I]	3
GEMTGSPPKWQIGEQEFEALMRML [G3M]	3.01
GECTGSPPKWQIGEQEFEALMRML [G3C]	3.6
GEGTGSPPKWQIGEQEFEELMRML [A19E]	4.04
GEGTGSPPKWQIGEQEFEQLMRML [A19Q]	3.65
GEGTGSPPKWQIGEQEFEPLMRML [A19P]	3.25
GEGTGSPPKWQIGEQEFEVLMRML [A19V]	2.97
GEGTGSPPKWQIGEQEFELLMRML [A19L]	2.85
GEGTGSPPKWQIGEQEFEILMRML [A19I]	2.39

Variant	protein stability index
GEGTGSPPKWQIGEQEFESLMRML [A19S]	2.94
GEGTGSPPKWQIGEQEFECLMRML [A19C]	3.43
GEGTGSPPKWQIGEQEFEWLMRML [A19W]	2.31
GEGTGSPPKWQIGEQEFEHLMRML [A19H]	3.65
GEGTGAPPKWQIGEQEFEALMRML [S6A]	2.87
GEGTGHPPKWQIGEQEFEALMRML [S6H]	2.76
GEGTGPPPKWQIGEQEFEALMRML [S6P]	2.95
GEGTGFPPKWQIGEQEFEALMRML [S6F]	1.88
GEGTGMPPKWQIGEQEFEALMRML [S6M]	3.91
GEGTGWPPKWQIGEQEFEALMRML [S6W]	2.19
GEGTGSPPWWQIGEQEFEALMRML [K9W]	2.63
GEGTGSPPVWQIGEQEFEALMRML [K9V]	2.49
GEGTGSPPHWQIGEQEFEALMRML [K9H]	3.08
GEGTGSPPPWQIGEQEFEALMRML [K9P]	3.42
GEGTGSPPIWQIGEQEFEALMRML [K9I]	2.58
GEGTGSPPGWQIGEQEFEALMRML [K9G]	3.14
GEGTGSPPSWQIGEQEFEALMRML [K9S]	3.48
GEGTGSPPDWQIGEQEFEALMRML [K9D]	3.33
GEGTGSPPMWQIGEQEFEALMRML [K9M]	2.93
GEGTGSPPYWQIGEQEFEALMRML [K9Y]	3.43
GEGTGSPPCWQIGEQEFEALMRML [K9C]	2.28
GEGTGSPPLWQIGEQEFEALMRML [K9L]	2.34
LEGTGSPPKWQIGEQEFEALMRML [G1L]	3.32
CEGTGSPPKWQIGEQEFEALMRML [G1C]	2.88

Variant	protein stability index
HEGTGSPPKWQIGEQEFEALMRML [G1H]	3.1
QEGTGSPPKWQIGEQEFEALMRML [G1Q]	3.24
FEGTGSPPKWQIGEQEFEALMRML [G1F]	3.06
TEGTGSPPKWQIGEQEFEALMRML [G1T]	2.94
NEGTGSPPKWQIGEQEFEALMRML [G1N]	3.51
GEGTGSPPKWQYGEQEFEALMRML [I12Y]	3.69
GEGTGSPPKWQTGEQEFEALMRML [I12T]	3.7
GEGTGSPPKWQEGEQEFEALMRML [I12E]	4.45
GEGTGSPPKWQNGEQEFEALMRML [I12N]	3.55
GEGTGSPPKWQVGEQEFEALMRML [I12V]	3.22
GEGTGSPPKWQLGEQEFEALMRML [I12L]	3.06
GEGTGSPPKWQWGEQEFEALMRML [I12W]	2.81
GEGTGSPPKWQIGEAEFEALMRML [Q15A]	2.75
GEGTGSPPKWQIGELEFEALMRML [Q15L]	2.22
GEGTGSPPKWQIGEHEFEALMRML [Q15H]	2.83
GEGTGSPPKWQIGEGEFEALMRML [Q15G]	2.99
GEGTGSPPKWQIGENEFEALMRML [Q15N]	3.03
GEGTGSPPKWQIGEEEFEALMRML [Q15E]	3.33
GEGTGSPPKWQIGEMEFEALMRML [Q15M]	2.6
GEGTGSPPKWQIGESEFEALMRML [Q15S]	3.13
GEGTGSPPKWQIGEDEFEALMRML [Q15D]	3.48
GEGTGSPGKWQIGEQEFEALMRML [P8G]	3
GEGTGSPSKWQIGEQEFEALMRML [P8S]	2.82
GEGTGSPWKWQIGEQEFEALMRML [P8W]	2.29

Variant	protein stability index
GEGTGSPRKWQIGEQEFEALMRML [P8R]	3.14
GEGTGSPKKWQIGEQEFEALMRML [P8K]	2.52
GEGTGSPTKWQIGEQEFEALMRML [P8T]	2.85
GEGTGSPPKWQIGEQEFEALMVML [R22V]	2.14
GEGTGSPPKWQIGEQEFEALMYML [R22Y]	2.37
GEGTGSPPKWQIGEQEFEALMSML [R22S]	3.44
GEGTGSPPKWQIGEQEFEALMMML [R22M]	2.55
GEGTGSPPKWQIGEQEFEALMNML [R22N]	3.62
GEGTGSPPKWQIGEQEFEALMLML [R22L]	2.09
GEGTGSPPKWQIGEQEFEALMRIL [M23I]	2.16
GEGTGSPPKWQIGEQEFEALMRSL [M23S]	4.68
GEGTGSPPKWQIGEQEFEALMRVL [M23V]	3.43
GEGTGSPPKWQIGEQEFEALMREL [M23E]	5.04
GEGTGSPPKWQIGEQEFEALMRKL [M23K]	4.49
GEGTGSPPKWQIGEQEFEALMRFL [M23F]	2.52
GEGTGSPPKWQIGEQEFEALMRQL [M23Q]	4.44
GEGTGSPPKWQIGEQEFEALMRDL [M23D]	5.08
GEGTGSKPKWQIGEQEFEALMRML [P7K]	3.23
GEGTGSHPKWQIGEQEFEALMRML [P7H]	2.89
GEGTGSLPKWQIGEQEFEALMRML [P7L]	2.33
GEGTGSQPKWQIGEQEFEALMRML [P7Q]	3.04
GEGTGSSPKWQIGEQEFEALMRML [P7S]	2.45
GEGTGSDPKWQIGEQEFEALMRML [P7D]	3.09
GEGTGSWPKWQIGEQEFEALMRML [P7W]	2.08

Variant	protein stability index
GEGTGSEPKWQIGEQEFEALMRML [P7E]	3.04
GEGTGSGPKWQIGEQEFEALMRML [P7G]	2.52
GEGTGSCPKWQIGEQEFEALMRML [P7C]	2.59
GEGTGSPPKWQIGEQETEALMRML [F17T]	3.75
GEGTGSPPKWQIGEQEYEALMRML [F17Y]	3.94
GEGTGSPPKWQIGEQEHEALMRML [F17H]	4.32
GEGTGSPPKWQIGEQEQEALMRML [F17Q]	4.76
GEGTGSPPKWQIGEQEKEALMRML [F17K]	3.88
GEGTGSPPKWQIGEQENEALMRML [F17N]	3.55
GEGTGSPPKWQIGEQEWEALMRML [F17W]	3.6
GEGTGSPPKWQIGEQEIEALMRML [F17I]	3.15
GEGTGSPPKWQIGEQTFEALMRML [E16T]	2.4
GEGTGSPPKWQIGEQAFEALMRML [E16A]	2.33
GEGTGSPPKWQIGEQCFEALMRML [E16C]	2.75
GEGTGSPPKWQIGEQYFEALMRML [E16Y]	1.71
GEGTGSPPKWQIGEQVFEALMRML [E16V]	1.6
GEGTGSPPKWQIGEQMFEALMRML [E16M]	1.74
GEGTGSPPKWQIGEQWFEALMRML [E16W]	2.54
GEGTGSPPKWQIGRQEFEALMRML [E14R]	2.6
GEGTGSPPKWQIGLQEFEALMRML [E14L]	2.3
GEGTGSPPKWQIGIQEFEALMRML [E14I]	3.39
GEGTGSPPKWQIGCQEFEALMRML [E14C]	2
GEGTGSPPKWQIGQQEFEALMRML [E14Q]	3.19
GEGTGSPPKWQIGAQEFEALMRML [E14A]	3.16

Variant	protein stability index
GEGTGSPPKWQIGPQEFEALMRML [E14P]	2.93
GEGTGSPPKWQIGDQEFEALMRML [E14D]	3.17
GEGTGSPPKWQIHEQEFEALMRML [G13H]	3.29
GEGTGSPPKWQIEEQEFEALMRML [G13E]	4.05
GEGTGSPPKWQINEQEFEALMRML [G13N]	2.78
GEGTGSPPKWQILEQEFEALMRML [G13L]	2.84
GEGTGSPPKWQISEQEFEALMRML [G13S]	3.22
GEGTGSPPKWQIPEQEFEALMRML [G13P]	3.74
GEGTGSPPKWQIWEQEFEALMRML [G13W]	3.37
GEGTGSPPKWQIVEQEFEALMRML [G13V]	2.5
GEGTGSPPKWQIMEQEFEALMRML [G13M]	2.94
GEGTGSPPKRQIGEQEFEALMRML [W10R]	4.22
GEGTGSPPKTQIGEQEFEALMRML [W10T]	3.42
GEGTGSPPKPQIGEQEFEALMRML [W10P]	3.81
GEGTGSPPKHQIGEQEFEALMRML [W10H]	3.99
GEGTGSPPKEQIGEQEFEALMRML [W10E]	4.28
GEGTGSPPKCQIGEQEFEALMRML [W10C]	2.93
GEGTPSPPKWQIGEQEFEALMRML [G5P]	2.83
GEGTLSPPKWQIGEQEFEALMRML [G5L]	2.9
GEGTQSPPKWQIGEQEFEALMRML [G5Q]	3.49
GEGTASPPKWQIGEQEFEALMRML [G5A]	3.39
GEGTESPPKWQIGEQEFEALMRML [G5E]	3.21
GEGTGSPPKWQIGEQEFTALMRML [E18T]	3
GEGTGSPPKWQIGEQEFRALMRML [E18R]	2.07

Variant	protein stability index
GEGTGSPPKWQIGEQEFYALMRML [E18Y]	2.08
GEGTGSPPKWQIGEQEFIALMRML [E18I]	2.37
GEGTGSPPKWQIGEQEFQALMRML [E18Q]	3.22
GFGTGSPPKWQIGEQEFEALMRML [E2F]	2.73
GRGTGSPPKWQIGEQEFEALMRML [E2R]	3.16
GHGTGSPPKWQIGEQEFEALMRML [E2H]	2.96
GIGTGSPPKWQIGEQEFEALMRML [E2I]	4.01
GSGTGSPPKWQIGEQEFEALMRML [E2S]	2.73
GYGTGSPPKWQIGEQEFEALMRML [E2Y]	2.28
GKGTGSPPKWQIGEQEFEALMRML [E2K]	2.3
GGGTGSPPKWQIGEQEFEALMRML [E2G]	3.06
GEGTGSPPKWQIGEQEFEALMRMM [L24M]	3.89
GEGTGSPPKWQIGEQEFEALMRMQ [L24Q]	4.74
GEGTGSPPKWQIGEQEFEALMRMD [L24D]	4.89
GEGTGSPPKWQIGEQEFEALMRMP [L24P]	4.38
GEGTGSPPKWQIGEQEFEALMRMI [L24I]	3.52
GEGTGSPPKWQIGEQEFEALMRMF [L24F]	3.42
GEGTGSPPKWQIGEQEFEALMRME [L24E]	4.98
GEGTGSPPKWQIGEQEFEALMRMN [L24N]	4.13
GEGTGSPPKWQIGEQEFEALMRMG [L24G]	4.1

— the supplement of paper PMC10567573
